The record followed here is patent publication US20120301468A1 (Bayer, published 2012).

In assay [1] the target is T1, human MN protein, entire extra-cellular domain with a C-terminal histag, expressed in HKB-11 cells (human, UniProt Q16790 38-414). Put plainly: BIAcore surface plasmon resonance; Fab captured on immobilized anti-human-Fab IgG, purified human MN (HKB-11) as analyte; 1:1 Langmuir fit.
Assay [2] concerns the target T1, human MN protein, entire extra-cellular …. Put plainly: SPR, BIAcore 3000, IgG captured by anti-human IgG Fc, MN as analyte, 1:1 Langmuir fit.
Assay [3] deals with T2, MN protein on the surface of MN-expressing (MN+) cells (PC3 mm2, MaTu) (human, UniProt Q16790 38-459). Put plainly: cell-based or functional assay.
Assay [4] deals with T1, human MN protein, entire extra-cellular …. Put plainly: Biacore (SPR), purified MN protein. Background: SPR reads the build-up and loss of mass on a sensor chip optically.
For assay [5] the target is unchanged. Put plainly: BIAcore surface plasmon resonance; IgG captured on immobilized goat anti-human IgG Fc, purified human MN (HKB-11) as analyte; 1:1 Langmuir fit.
The target is the same in assay [6]. Put plainly: Biacore (SPR), purified MN protein. The source holds these as a separate data set.
Assay [7] deals with T2, MN protein on the surface of …. Put plainly: FACS on PC3mm2 (MN+) cells with DLD (MN-) cells as negative cells; traces not labelled on the sheet.

B1: 3bb2 Fab (Fab, V domains shown)
VH: ELVESGGGLVQPGGSLRLSCAASGFTFSNYGISWVRQAPGKGLEWVSAISYYGSNTYYADSVKGRFTISRDNSKNTLYLQMNSLRAEDTAVYYCARLKGGSGFVWGQGTLVTVSS
VL: DIVMTQSPLSLPVTPGEPASISCRSSQSLVYSNGNTTLSWYLQKPGQSPQLLIYGVSNRASGVPDRFSGSGSGTDFTLKISRVEAEDVGVYYCQQYNSFPRTFGQGTKVEIK
notes: Only CDRs are tied to the name
One may read the Kd as the concentration at which binding is half-saturated. In assay [1], B1 showed a dissociation constant (Kd) of 27 nM.

B2: 5aa3 full-length human IgG1 (antibody, V domains shown)
VH: QVELVQSGAEVKKPGESLKISCKGSGYSFTGYISWVRQAPGKGLEWMGIIYPGDSYTNYSPSFQGQVTISADKSISTAYLQWSSLKASDTAMYYCARYSGPNWDVMDSWGQGTLVTVSS
VL: DIVLTQPPSVSGAPGQRVTISCSGSSSNIGSYYVNWYQQLPGTAPKLLIYADDKRPSGVPDRFSGSKSGTSASLAITGLQSEDEADYYCQSYDSTKDDSVFGGGTKLTVL
notes: Full-length human IgG1 made from the Fab; Only CDRs are tied to the name
Molecule B2 yielded a Kd in assay [2] of 1 nM.

B3: 3ee9/MMAE (3ee9 human IgG1 conjugated to monomethylauristatin E) (antibody, V domains shown)
VH: QVELVESGGGLVQPGGSLRLSCAASGFTFSSYGMSWVRQAPGKGLEWVSGISSLGSTTYYADSVKGRFTISRDNSKNTLYLQMNSLRAEDTAVYYCARTGSPGTFMHGDHWGQGTLVTVSS
VL: DIQMTQSPSSLSASVGDRVTITCRASQDINNYLSWYQQKPGKAPKLLIYGASNLQSGVPSRFSGSGSGTDFTLTISSLQPEDFAVYYCQQYYGRPTTFGQGTKVEIKR
modifications: Monomethylauristatin E (MMAE) is conjugated to the antibody through a linker (FIG. 9). The chain and residues of attachment are not stated, and the letters do not carry the drug.
notes: Only CDRs are tied to the name; also called BAY 79-4620; 3ee9-IC
Regarding B3, the “Cytotoxicity: MN+/MN- (ec50)” value in assay [3] was found to be 50 nM. Also, the Kd in assay [4] turned out to be 3.6 nM.

B4: 3ee9 full-length human IgG1 (antibody, V domains shown)
VH: QVELVESGGGLVQPGGSLRLSCAASGFTFSSYGMSWVRQAPGKGLEWVSGISSLGSTTYYADSVKGRFTISRDNSKNTLYLQMNSLRAEDTAVYYCARTGSPGTFMHGDHWGQGTLVTVSS
VL: DIQMTQSPSSLSASVGDRVTITCRASQDINNYLSWYQQKPGKAPKLLIYGASNLQSGVPSRFSGSGSGTDFTLTISSLQPEDFAVYYCQQYYGRPTTFGQGTKVEIKR
notes: Only CDRs are tied to the name; also called unconjugated antibody 3ee9; antibody portion of 3ee9/MMAE
As to B4, the Kd was 4 nM in assay [2], 5.9 nM in assay [5] and 3.6 nM in assay [6].

B5: 5a6 Fab (Fab, V domains shown)
VH: ELVQSGAEVKKPGESLKISCKGSGYSFSKYWIGWVRQMPGKGLEWMGIIYPTDSYTRYSPSFQGQVTISADKSISTAYLQWSSLKASDTAMYYCARTHGYYKNGRMDVWGQGTLVTVSS
VL: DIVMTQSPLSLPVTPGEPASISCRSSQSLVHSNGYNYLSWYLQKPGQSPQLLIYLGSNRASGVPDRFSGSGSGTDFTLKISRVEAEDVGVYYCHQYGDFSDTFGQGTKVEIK
notes: as for B1
Regarding B5, the Kd in assay [1] is 3.4 nM.

B6: 1aa1 Fab (Fab, V domains shown)
VH: ELVQSGAEVKKPGASVKVSCKASGYTFTTNYMHWVRQAPGQGLEWMGIINPHNGSTSYAQKFQGRVTMTRDTSISTAYMELSSLRSEDTAVYYCARGRYFLMDVWGQGTLVTVSS
VL: DIQMTQSPSSLSASVGDRVTITCRASQNILSYLNWYQQKPGKAPKLLIYAASSLQSGVPSRFSGSGSGTDFTLTISSLQPEDFAVYYCQQYGSVPTFGQGTKVEIK
notes: as for B1
For B6, binding in assay [1] was put at a Kd of 0.15 nM. This Kd is about 23-fold lower than that of the molecule before.

B7: 1aa1 full-length human IgG1 (antibody, V domains shown)
VH: QVELVQSGAEVKKPGASVKVSCKASGYTFTTNYMHWVRQAPGQGLEWMGIINPHNGSTSYAQKFQGRVTMTRDTSISTAYMELSSLRSEDTAVYYCARGRYFLMDVWGQGTLVTVSS
VL: DIQMTQSPSSLSASVGDRVTITCRASQNILSYLNWYQQKPGKAPKLLIYAASSLQSGVPSRFSGSGSGTDFTLTISSLQPEDFAVYYCQQYGSVPTFGQGTKVEIK
notes: as for B2
Take B7: the dissociation constant Kd worked out at 27 nM in assay [2] and 49 nM in assay [5].

B8: 1aa1 immunoconjugate (antibody, human IgG1, V domains shown)
VH: QVELVQSGAEVKKPGASVKVSCKASGYTFTTNYMHWVRQAPGQGLEWMGIINPHNGSTSYAQKFQGRVTMTRDTSISTAYMELSSLRSEDTAVYYCARGRYFLMDVWGQGTLVTVSS
VL: DIQMTQSPSSLSASVGDRVTITCRASQNILSYLNWYQQKPGKAPKLLIYAASSLQSGVPSRFSGSGSGTDFTLTISSLQPEDFAVYYCQQYGSVPTFGQGTKVEIK
modifications: A cytotoxic drug (MMAE by paragraph 261) is conjugated to the IgG1. The chain and residues of attachment are not stated, and the letters do not carry the drug.
notes: Human IgG1 1aa1 conjugated to a cytotoxic drug; Only CDRs are tied to the name
With B8, the binding result in assay [7] was “binds”.

B9: 3ab4 Fab (Fab, V domains shown)
VH: ELVESGGGLVQPGGSLRLSCAASGFTFSSYGISWVRQAPGKGLEWVSGISYSGSSTYYADSVKGRFTISRDNSKNTLYLQMNSLRAEDTAVYYCARLKPYRHKNGWFDYWGQGTLVTVSS
VL: DIQMTQSPSSLSASVGDRVTITCRASQNISNYLNWYQQKPGKAPKLLIHKVSNLQSGVPSRFSGSGSGTDFTLTISSLQPEDFAVYYCLQYDDFPRTFGQGTKVEIK
notes: as for B1
Take B9: binding in assay [1] was characterised by a dissociation constant (Kd) of 50 nM.

B10: 3ee9 Fab (Fab, V domains shown)
VH: ELVESGGGLVQPGGSLRLSCAASGFTFSSYGMSWVRQAPGKGLEWVSGISSLGSTTYYADSVKGRFTISRDNSKNTLYLQMNSLRAEDTAVYYCARTGSPGTFMHGDHWGQGTLVTVSS
VL: DIQMTQSPSSLSASVGDRVTITCRASQDINNYLSWYQQKPGKAPKLLIYGASNLQSGVPSRFSGSGSGTDFTLTISSLQPEDFAVYYCQQYYGRPTTFGQGTKVEIK
notes: only the CDRs are tied
Take B10: the Kd in assay [1] stood at 16 nM.

B11: 3ef2 Fab (Fab, V domains shown)
VH: ELVESGGGLVQPGGSLRLSCAASGFTFSSYGMHWVRQAPGKGLEYVSAISYSSSSTSYADSVKGRFTISRDNSKNTLYLQMNSLRAEDTAVYYCARLSYTGFAVWGQGTLVTVSS
VL: DIELTQPPSVSVAPGQTARISCSGDNLGSYYVHWYQQKPGQAPVLVIYDDNNRPSGIPERFSGSNSGNTATLTISGTQAEDEADYYCQSYDFGKVVFGGGTKLTVL
notes: as for B1
For the molecule B11, binding in assay [1] was put at a Kd of 4.1 nM.

B12: 3ef2 full-length human IgG1 (antibody, V domains shown)
VH: QVELVESGGGLVQPGGSLRLSCAASGFTFSSYGMHWVRQAPGKGLEYVSAISYSSSSTSYADSVKGRFTISRDNSKNTLYLQMNSLRAEDTAVYYCARLSYTGFAVWGQGTLVTVSS
VL: DIELTQPPSVSVAPGQTARISCSGDNLGSYYVHWYQQKPGQAPVLVIYDDNNRPSGIPERFSGSNSGNTATLTISGTQAEDEADYYCQSYDFGKVVFGGGTKLTVL
notes: as for B2
The molecule B12 displayed a Kd in assay [2] of 6 nM. This counts as single-digit nanomolar.

B13: 1e4 full-length human IgG1 (antibody, V domains shown)
VH: ELVESGGGLVQPGGSLRLSCAASGFTFSNNAMNWVRQAPGKGLEWVSGISYDSSKTYYADSVKGRFTISRDNSKNTLYLQMNSLRAEDTAVYYCARLTYTGAYRWGQGTLVTVSS
VL: DIELTQPPSVSVAPGQTARISCSGDNLGSYYVHWYQQKPGQAPVLVIYDDNNRPSGIPERFSGSNSGNTATLTISGTQAEDEADYYCQSYDFGKVVFGGGTKLTVL
notes: Full-length human IgG1 made from the Fab (IgG1 constant region PIR J00228); Only CDRs are tied to the name; also called monoclonal IgG1 1e4; anti-MN antibody 1e4
B13: the equilibrium dissociation constant (Kd) in assay [2] amounted to 5 nM; in assay [5], 1 nM.

B14: 1e4 Fab (Fab, V domains shown)
VH: ELVESGGGLVQPGGSLRLSCAASGFTFSNNAMNWVRQAPGKGLEWVSGISYDSSKTYYADSVKGRFTISRDNSKNTLYLQMNSLRAEDTAVYYCARLTYTGAYRWGQGTLVTVSS
VL: DIELTQPPSVSVAPGQTARISCSGDNLGSYYVHWYQQKPGQAPVLVIYDDNNRPSGIPERFSGSNSGNTATLTISGTQAEDEADYYCQSYDFGKVVFGGGTKLTVL
notes: as for B1
The molecule B14 had a dissociation constant Kd in assay [1] of 1.4 nM.

B15: 3ah10 Fab (Fab, V domains shown)
VH: ELVESGGGLVQPGGSLRLSCAASGFTFSSYGISWVRQAPGKGLEWVSSISYSGSNTYYADSVKGRFTISRDNSKNTLYLQMNSLRAEDTAVYYCARMKPMRGYSGAVWGQGTLVTVSS
VL: DIQMTQSPSSLSASVGDRVTITCRASQDISNRLAWYQQKPGKAPKLLIYDANSLQSGVPSRFSGSGSGTDFTLTISSLQPEDFATYYCFQYSGPTFGQGTKVEIK
notes: as for B1
Turning to B15, the Kd in assay [1] was determined as 16 nM.
